Experiment: yeast display, Sf9 membrane polyspecificity reagent, FACS + sequencing; frameworks hold sequencing errors
Summary of the method: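 Synthetic nanobody libraries on Saccharomyces cerevisiae BJ5465 were galactose-induced for 36–48 hours, stained 1 hour at 4 °C with 10% biotinylated, detergent-solubilized Sf9 membrane reagent and enriched on streptavidin microbeads. FACS then separated cells into low and high (top ~1%) gates by anti-HA (expression) and streptavidin (reagent binding) fluorescence. Genes were colony-PCR amplified, MiSeq 2 × 250 sequenced and CDR-length filtered. A clone's polyreactivity label is that of its gate of origin.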
For “QVQLVESGGGLVQAGGSLRLSCAASGSIFTFYAMGWYRQAPGKERELVATINRIGGNTYYADSVKGRFTISRDNAKNTVYFQMNSLKPEDTAVYYCAADRSAWGSNWETQFDYWGQGTQVTVSS”, the “polyreactivity (PSR sort gate)” value was “low polyreactivity”. For “QVQLVESGGGLVQAGGSLRLSCAASGSIFTFYTMGWYRQAPGKERELVAAINWSGSRTYYADSVKGRFTISRDNAKNTVYLQMNSLIQEDTAVYYCNVRCYYKRRYGWYSYRYGYWGQGTQVTVSS”, the “polyreactivity (PSR sort gate)” value was “high polyreactivity”. In the case of “QVQLVESGGGLVQAGGSLRLSCAASGSIFTGYAMGWYRQAPGKERELVAAISYSTGRTYYADSVKGRFTISRDNAKNTVYLQMNSLKPEDTAVYYCAARYREQYDYWGQGTQVTVSS”, the “polyreactivity (PSR sort gate)” value is reported as “low polyreactivity”. In the case of “QVQLVESGGGLVQAGGSLRLSCAASGSIFTGYDMGWYRQAPGKERELVAVISTAGRTYYADSVKGRFTISRDNAKNTVYLQMNSLKPEDTAVYYCAKRSYSKDQPRYGYWGQGTQVTVSS”, the “polyreactivity (PSR sort gate)” value is reported as “low polyreactivity”. For “QVQLVESGGGLVQAGGSLRLSCAASGSIFTIYAMGWYRQAPGKERELVAAISFSGGSTYYADSVKGRFTISRDNAKNTVYLQMNSLKPEDTAVYYCAADGGFTYDNWGQGTQVTVSS”, the “polyreactivity (PSR sort gate)” value was “low polyreactivity”. With “QVQLVESGGGLVQAGGSLRLSCAASGSIFTIYAMGWYRQAPGKERELVATITGGGGSTYYADSVKGRFTISRDNAKNTVYLQMNSLKPEDTAVYYCATDFRRTRSYGNSRSYGYWGQGTQVTVSS” the “polyreactivity (PSR sort gate)” value was “low polyreactivity”. With “QVQLVESGGGLVQAGGSLRLSCAASGSIFTKYAMGWYRPAPGKERELVAAISYSGGTRTYYADSVKGRFTSSRDNAKNTVYLQMNSLKPEDTAVYYCAARRYTRRANPAYPYEYWGQGTQVTVSS” the “polyreactivity (PSR sort gate)” value was “high polyreactivity”. In the case of “QVQLVESGGGLVQAGGSLRLSCAASGSIFTKYAMGWYRQAPGKEREFVAAITLSGGSTYYADSVKGRFTIGRDNAKNTVYLQMNSLKPEDTAVYYCNAAYTYVTAWYYYWGQGTQVTVSS”, the “polyreactivity (PSR sort gate)” value is reported as “high polyreactivity”. With “QVQLVESGGGLVQAGGSLRLSCAASGSIFTLYAMGSYRQAPGKERELVAAITWSGGSTYYADSVKGRFTISRDNAKNTVYLQMNSLKPEDTAVYYCAKDYLAGGPWEGHVEREYDYWGQGTQVTVSS” the “polyreactivity (PSR sort gate)” value was “low polyreactivity”. For “QVQLVESGGGLVQAGGSLRLSCAASGSIFTLYAMGWYRQAPGKETELVAVISSSGGRTYYADSVKGRFTISRDNAKNTVYLQMNSLKPEDTAVYYGAARGYGATYDYWGQGTQVTVSS”, the “polyreactivity (PSR sort gate)” value was “high polyreactivity”. With “QVQLVESGGGLVQAGGSLRLSCAASGSIFTNAMGWYRQAPGKERELVAAISSTGGSTYYADSVKGRFTISRDNAKNTVYLQMYSLKPEDTAVYYCAADHYGGRDYWGQGTQLTVSS” the “polyreactivity (PSR sort gate)” value was “low polyreactivity”. For “QVQLVESGGGLVQAGGSLRLSCAASGSIFTNNAMGWYRHAPGKERELVAAISRGGSTYYADSVKGRFTISRDIAKNTDFIQMNSLIPEDTAVYYCNARRYRHDGYWGQGTQVTVSS”, the “polyreactivity (PSR sort gate)” value was “high polyreactivity”. With “QVQLVESGGGLVQAGGSLRLSCAASGSIFTNNAMGWYRQAPGKERELVAGINISGDSTYYADSVKGRFTISRDNAKNTVYLQMNSLKPEDTAVYYCAAGDGYAGIYDYWGQGTQVTVSS” the “polyreactivity (PSR sort gate)” value was “low polyreactivity”. In the case of “QVQLVESGGGLVQAGGSLRLSCAASGSIFTPNVKGRYRQAPGKERELVAAISQSGGSTFYADSVKGRFSFSRDNAKKTVYLQMNSLKPEDTAVYYCASEYYGPVYDLDFDYWGQGTQVTVSS”, the “polyreactivity (PSR sort gate)” value is reported as “low polyreactivity”. In the case of “QVQLVESGGGLVQAGGSLRLSCAASGSIFTPNVMGWYRHAPGKERELVAAISQSGGSTFYADSVKGRFTISRDNAKNTVYLQMNSLKPEDTAVYYCNVDDNSEYDYWGQGSQVTVSS”, the “polyreactivity (PSR sort gate)” value is reported as “low polyreactivity”. In the case of “QVQLVESGGGLVQAGGSLRLSCAASGSIFTPNVMGWYRQEPGKERELVAAISQRGGSTYYADSVKGRFTLSRDNAKNTVYLQMNSLKPEDTAVYYCNKDNAVDRLPWFQVTYDYWGQGTQVTVSS”, the “polyreactivity (PSR sort gate)” value is reported as “low polyreactivity”. For “QVQLVESGGGLVQAGGSLRLSCAASGSIFTPYAMGWYRQAPGKERELVAAITYSGGSTYYADSVKGRFTISRDNAKNTVYLLMNSLKPEDTAVYYCAAYFNIYGLEYDYWGQGTQVTVSS”, the “polyreactivity (PSR sort gate)” value was “high polyreactivity”. With “QVQLVESGGGLVQAGGSLRLSCAASGSIFTPYAMGWYRQAPGKERELVADIDASGGGTYADSVKGRFTISRDNAKNTVYLQMNSLKPEDTAVFYCNADTGIWDYRFVDRDYWGQGTQVTVSS” the “polyreactivity (PSR sort gate)” value was “low polyreactivity”. For “QVQLVESGGGLVQAGGSLRLSCAASGSIFTQYAMGWYRQAPGKERELVAAISWRGGRTYYADSVKGRFTISRDNAKNTVYLQMNSLKPEDTAVYYCNRVYGAHHYYYGIGTYDYWGQGTQVTVSS”, the “polyreactivity (PSR sort gate)” value was “high polyreactivity”. In the case of “QVQLVESGGGLVQAGGSLRLSCAASGSIFTRNAMGWYRQAPGKERELVATIRKNGASTTYADSVKGRFTISRDNAKNTVYLQMNSLKQEDTAVYYCARDHHTKYNYWGQGTQVTVSS”, the “polyreactivity (PSR sort gate)” value is reported as “low polyreactivity”. In the case of “QVQLVESGGGLVQAGGSLRLSCAASGSIFTRYAMGWYRQAPGKEREFVAAITTRGGSTYYADSVKGRFTISRDNAKNTVYLQMNSLKPEDTAVYYCNTRGKSGLWWYNYWGQGTQVTVSS”, the “polyreactivity (PSR sort gate)” value is reported as “high polyreactivity”. With “QVQLVESGGGLVQAGGSLRLSCAASGSIFTRYAMGWYRQAPGKERELVAAISQSGGNTYYADSVKGRFTISRDNAKNTVYLQMNSLKPEDTAVYYCAARWPWTHTRGYWGQGTQVTVSS” the “polyreactivity (PSR sort gate)” value was “high polyreactivity”. For “QVQLVESGGGLVQAGGSLRLSCAASGSIFTRYAMGWYRQAPGKERELVAAISWIGTRTYYADSVKGRFTISRDNAKNTVYLQMNSLKPEDTAVYYCNAVSKVERYSYPHGRPFEYWGQGTQVTVSS”, the “polyreactivity (PSR sort gate)” value was “high polyreactivity”. For “QVQLVESGGGLVQAGGSLRLSCAASGSIFTSNAMGWYRQAPGKERELVAAITSDGAITYADSVKGRFTISRDNAKNTVYLQMNSLKPEDTAVYYCATEIEYYVGSVADMGYWGQGTQVTVSS”, the “polyreactivity (PSR sort gate)” value was “low polyreactivity”. With “QVQLVESGGGLVQAGGSLRLSCAASGSIFTSYAMGWYRQAPGKERELVAAISRSGARTYYADSVKGRFTISRDNAKNTVYLLMNCLKPEDTAVYYCAAVHWRTTGGYDYWGQGTQVTVSS” the “polyreactivity (PSR sort gate)” value was “high polyreactivity”. With “QVQLVESGGGLVQAGGSLRLSCAASGSIFTSYAMGWYRQAPGKERELVAAISSSGSTYYADSVKGRFTISRDNAKNTVYLQMNSLKPEDTAVYYCNADSRTAGLNSEYDYWGQGTQVTVSS” the “polyreactivity (PSR sort gate)” value was “low polyreactivity”. With “QVQLVESGGGLVQAGGSLRLSCAASGSIFTTNTMGWYRQAPGKERELVAAISSGGGTHYADSVKGRFTISRDNAKNTVYLQMNSLKPEDTAVYYCDARSYYYEWFGDVAMYYWGQGTQVTVSS” the “polyreactivity (PSR sort gate)” value was “low polyreactivity”. With “QVQLVESGGGLVQAGGSLRLSCAASGSIFTTYAMGWYRQAPGKERELVAAISRAGDTTYADSVKGRFTISRDNAKNTVYLQRNSLKPEDTAVYYWGQGTQVTVSS” the “polyreactivity (PSR sort gate)” value was “low polyreactivity”. In the case of “QVQLVESGGGLVQAGGSLRLSCAASGSIFTVNAMGWYRQAPGKERELVAAITFGGGRTYYADSVKGRFTISRDNAKNTVYLQMNSLKPEDTSVYYCAVSRKGLGSVEYWGQGTQVTVSS”, the “polyreactivity (PSR sort gate)” value is reported as “low polyreactivity”. For “QVQLVESGGGLVQAGGSLRLSCAASGSIFTVYAMGWYRQAPGKERELVAAITRNGGRTYYADSVKGRFTISRDNAKNTVYLQMNSLKPEDTAVYYCAAPGLYSRLDYWGQGTQVTVSS”, the “polyreactivity (PSR sort gate)” value was “high polyreactivity”. In the case of “QVQLVESGGGLVQAGGSLRLSCAASGSIFTVYAMGWYRQAPGKERELVATITTGGSTNYADSVKGRFTISRDNAKTTVYLQMNSLKPEDTAVYYCAATYWSWISLRFYWGQGTQVTVSS”, the “polyreactivity (PSR sort gate)” value is reported as “low polyreactivity”. For “QVQLVESGGGLVQAGGSLRLSCAASGSIFTVYAMGWYRQAPGKESELVAGITRRGSTYYADSVKGRFTISRDNAKNTFYLLMNRLKPEDTAVYYCAASRWVLESSGRVNWYDYWGQVTQVTVSS”, the “polyreactivity (PSR sort gate)” value was “low polyreactivity”. In the case of “QVQLVESGGGLVQAGGSLRLSCAASGSIFTWNGMGWYRQAPGKERELVAAISGSGGTTYADSVKGRFTISRDNAKNTVYLQMNSLKPEDTAVYYCARRVWVRDYPFGYARYGYWGQGTQVTVSS”, the “polyreactivity (PSR sort gate)” value is reported as “low polyreactivity”. For “QVQLVESGGGLVQAGGSLRLSCAASGSIFTWYVMGWYRQAPGKERELVAAITSGGRTYYADSVKGRFTISRDNAKKTVYLQMNSLKPEDTAVYYCAADSIGRLWGYGYWGQGTQVTVSS”, the “polyreactivity (PSR sort gate)” value was “high polyreactivity”. For “QVQLVESGGGLVQAGGSLRLSCAASGSIFTYNAMGWYRQAPGKERELVAAISTSGGSTYYADSVKGRFTISRDNAKNTVYLQMNSLKPEDTAVYYCAAEYYVYPFWYGYWGQGTQVTVSS”, the “polyreactivity (PSR sort gate)” value was “high polyreactivity”. With “QVQLVESGGGLVQAGGSLRLSCAASGSIFTYYAMGRYRQAPGKDRQLVAAISSNGGSTYYADSVKGRFTISRDNAKNTVYLQMNSLKPEDTAVYYCATVVNTWYQNGYEYWGQGTQVTVSS” the “polyreactivity (PSR sort gate)” value was “low polyreactivity”. In the case of “QVQLVESGGGLVQAGGSLRLSCAASGSIFTYYAMGWYRQAPGKEMELVARIDWNGGSTRYADSVKGRFTISRDNAKNTVYLQMNSLKPEYTAVYYCAADWDYAPYFDPDLLDYWGQGTQVTVSS”, the “polyreactivity (PSR sort gate)” value is reported as “low polyreactivity”. With “QVQLVESGGGLVQAGGSLRLSCAASGSIFTYYAMGWYRQAPGKERELVAAITSTGGSTYYADSVKGRFTISRDNAKNTVYLQMNSLKPEDTAVYYCATDYGYYDYWGQGTQVTVSS” the “polyreactivity (PSR sort gate)” value was “low polyreactivity”. With “QVQLVESGGGLVQAGGSLRLSCAASGSIFTYYAMGWYRQAPGKERELVAGITRGGSTYYAESVKGRFTISRDNAKNTVYLQMNSLKPEDTAVYYCNARWVLFYTGDGQEHDYWGQGTQVTVSS” the “polyreactivity (PSR sort gate)” value was “low polyreactivity”. In the case of “QVQLVESGGGLVQAGGSLRLSCAASGSIFTYYDMGWYRQAPGKEREWVAGISRRGSTYYADSVKGRFTISRDNAKNTVYLQMNSLKPEDTAVYYCAADPWVGTLYPRVGYWGQGTQVTVSS”, the “polyreactivity (PSR sort gate)” value is reported as “low polyreactivity”. For “QVQLVESGGGLVQAGGSLRLSCAASGSIFTYYTMGLYRQAPGKERELVADITGGGSSTYYADSVKGRFTISRDNAKNTVYLQMNSLKPEDTAVYYCAADKYWAQNDYWGQGTQVTVSS”, the “polyreactivity (PSR sort gate)” value was “low polyreactivity”. With “QVQLVESGGGLVQAGGSLRLSCAASGSIFTYYTMGWYRQAPGKERELVAAIRWSAGRTYYADSVKGRFTISRDNAKNTVYLQMNSLKPEDTAVYYCAAAERLRHGLKFDYWGQGTQVTVSS” the “polyreactivity (PSR sort gate)” value was “high polyreactivity”. In the case of “QVQLVESGGGLVQAGGSLRLSCAASGSIFVDYAMGWYRQAPGKERELVAAISWRGGSTYYADSVKGRFTISRDNAKNTVYLQMNSLKPEDTAVYYCAALTPFKYDYWGQGTKVTVSS”, the “polyreactivity (PSR sort gate)” value is reported as “low polyreactivity”.

— the nanobody polyreactivity screen of Harvey et al. (2022)
